Reference: the supplement of paper PMC9732359
± gives the uncertainty stated by the source.

Assay: protein stability index of a GFP-peptide fusion (yeast GPS) (PSI 1-4); higher = more stable; sorted into four equal gates, so the index is relative within each strain
In short: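 Sequencing reads from sorted gates were used to score each peptide. The library consisted of tiled 17-residue yeast protein peptides fused downstream of GFP on a Cherry-expressing plasmid, pooled and carried in yeast. Mid-log cultures in leucine-free medium were split into four equal gates by GFP/Cherry ratio, and each gate's plasmids were PCR-amplified and Illumina-sequenced. The protein stability index adds up, over all gates, the read frequency multiplied by the gate number.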

| Sequence | protein stability index (doa10∆) | protein stability index (pdr5∆) | protein stability index (san1∆) | protein stability index (ubr1∆) |
| --- | --- | --- | --- | --- |
| QFSYLSSTLGIDLEDIK [PCI8] | 2.36 ± 0.064 | 2.23 ± 0.076 | 1.71 ± 0.12 | 2.01 ± 0.07 |
| QFVETIVSKSIEMYVQE [RPN2] | 1.51 ± 0.13 | – | 1.05 ± 0.11 | 1.15 ± 0.2 |
| QFYVKRWKRFTIGAIFL [CDC53] | 2.81 ± 0.076 | 2.94 ± 0.093 | 3.08 ± 0.099 | 2.04 ± 0.055 |
| QGLNILEWLENPSNTPD [FAS1] | 3.2 ± 0.12 | 3.06 ± 0.086 | 3.41 ± 0.051 | 3.14 ± 0.058 |
| QGNYPTTSYIKEQENIT [DPB4] | 3 ± 0.06 | 3.1 ± 0.06 | 3.02 ± 0.041 | 3.18 ± 0.075 |
| QGPIVADKNCAKLHRIS [PUP1] | 3.41 ± 0.15 | 2.94 ± 0.088 | 2.79 ± 0.1 | 2.64 ± 0.072 |
| QIDHFKSMLSKPETLSI [SWI3] | 2.61 ± 0.086 | 2.44 ± 0.074 | 2.73 ± 0.065 | 2.4 ± 0.048 |
| QIIRLFYSKNRLLITGT [ISW2] | 2.55 ± 0.23 | 1.56 ± 0.14 | – | – |
| QIIRRVKEMEPKQSDEY [SIR3] | 3.29 ± 0.12 | 3.18 ± 0.11 | 3.37 ± 0.069 | 2.89 ± 0.15 |
| QIPQQLYQSLTPQQLQM [SNF5] | 2.73 ± 0.041 | 2.7 ± 0.038 | 2.57 ± 0.045 | 2.77 ± 0.034 |
| QIQQQQQKQQQQQQQHQ [SNF5] | 2.53 ± 0.12 | 2.97 ± 0.14 | 2.93 ± 0.12 | 2.61 ± 0.22 |
| QKKIQINKEMGELNSKL [SMC3] | – | 3.34 ± 0.21 | – | 3.15 ± 0.13 |
| QKRLEAGALNLASPEVK [DIS3] | – | 2.64 ± 0.18 | – | 2.82 ± 0.081 |
| QKTQELNAKYQSLGLDD [ISW2] | 3.31 ± 0.061 | 3.26 ± 0.048 | 3.17 ± 0.042 | 3.31 ± 0.052 |
| QKTRVKLLFDHDELDMN [ESC2] | 2.87 ± 0.16 | 3.36 ± 0.12 | 3.02 ± 0.076 | 3.12 ± 0.093 |
| QKTVNLKNIMKVSDPYV [RPN4] | 2.32 ± 0.084 | 2 ± 0.11 | 2.48 ± 0.1 | 1.82 ± 0.058 |
| QLDSKLMVFNDDTKNQD [YGR119C/NUP57] | 2.93 ± 0.062 | 2.75 ± 0.054 | 2.6 ± 0.057 | 2.91 ± 0.045 |
| QLFHSMSIVFGDKFSED [UBP6] | 1.62 ± 0.056 | 1.34 ± 0.06 | 1.14 ± 0.094 | 1.38 ± 0.041 |
| QLGEWAGLGKIDREGNA [RPS12] | 3.67 ± 0.28 | – | 3.4 ± 0.26 | 3.35 ± 0.14 |
| QLIKQSIKNNVAMCFVI [SNU114] | 1.37 ± 0.16 | 1.69 ± 0.14 | 1.24 ± 0.2 | – |
| QLLEKAPIPIREDIDDP [BRR2] | 2.64 ± 0.064 | 2.55 ± 0.066 | 2.37 ± 0.088 | 1.92 ± 0.058 |
| QLNEERSRYRREIDALK [YIL149C/MLP2] | 3.44 ± 0.092 | 3.25 ± 0.065 | 3.24 ± 0.045 | 3.25 ± 0.035 |
| QLNGNETFSTSAHQSPI [SNF2] | 3.31 ± 0.11 | 2.99 ± 0.075 | 3.16 ± 0.072 | 3.22 ± 0.054 |
| QLQGPQWMNEMVERWAN [SOH1] | 3.28 ± 0.11 | 3.18 ± 0.091 | 2.93 ± 0.099 | 3.06 ± 0.084 |
| QLSNGIVVATEHNPSAH [COR1] | 2.88 ± 0.075 | 3.08 ± 0.1 | 3.2 ± 0.059 | 2.52 ± 0.074 |
| QLTPQQQQLVNQMKVAP [GAL11] | 2.8 ± 0.061 | 2.98 ± 0.058 | 3.01 ± 0.061 | 2.79 ± 0.049 |

| Sequence | protein stability index (doa10∆) | protein stability index (pdr5∆) | protein stability index (san1∆) | protein stability index (ubr1∆) |
| --- | --- | --- | --- | --- |
| QLVPIRLEFDQDRDRFF [SNF5] | 3.14 ± 0.13 | 2.98 ± 0.16 | 2.98 ± 0.24 | 3.1 ± 0.078 |
| QLWLNSSGDFDDNNNNN [GRR1] | 3.19 ± 0.076 | 3.16 ± 0.07 | 3.17 ± 0.1 | 3.06 ± 0.055 |
| QLYFQKNGAQDLVLQIL [RRI2] | 2.6 ± 0.12 | 2.81 ± 0.12 | 2.32 ± 0.097 | 2.62 ± 0.048 |
| QMAVHIATDGGRICRPL [RET1] | 2.66 ± 0.094 | 3.04 ± 0.085 | 2.78 ± 0.1 | 2.8 ± 0.054 |
| QNAKLLANLIRDALRNI [RRP6] | 2.17 ± 0.055 | 2.18 ± 0.062 | 2.36 ± 0.084 | 2.23 ± 0.043 |
| QNFENDFSLRYISNLLY [REC8] | 2.19 ± 0.074 | 2.29 ± 0.076 | 2.02 ± 0.11 | 2.06 ± 0.043 |
| QNNLPPNFFLTLISENW [BRR2] | 2.94 ± 0.073 | 3.13 ± 0.069 | 2.91 ± 0.071 | 2.94 ± 0.072 |
| QNQGGAQAPFDIDDLAF [ROX3] | 3.55 ± 0.13 | – | 3.4 ± 0.11 | 3.37 ± 0.065 |
| QNRSLQEHNIQDSNVMP [SNF2] | 3.19 ± 0.057 | 3.08 ± 0.053 | 2.92 ± 0.04 | 3.31 ± 0.04 |
| QNSKFLKVNVTLDNPLL [YJL039C/NUP192] | 2.72 ± 0.088 | 2.57 ± 0.083 | 2.91 ± 0.058 | 2.36 ± 0.044 |
| QPEVAVKAAINFSNVTD [YIL149C/MLP2] | 2.21 ± 0.064 | 2.44 ± 0.055 | 2.2 ± 0.071 | 2.55 ± 0.048 |
| QPKLNPMASSSSFGSES [SWI1] | 2.85 ± 0.064 | 3.28 ± 0.069 | 3.12 ± 0.048 | 2.92 ± 0.057 |
| QPKRNLSRYVKWPEYVR [RPL8A] | 2.87 ± 0.096 | 2.98 ± 0.046 | 3.06 ± 0.06 | 2.99 ± 0.066 |
| QPNEISFKYLSNNDEDD [RGR1] | 2.37 ± 0.053 | 2.29 ± 0.041 | 1.88 ± 0.072 | 2.36 ± 0.039 |
| QPQHPHYVSTSKISQMA [YLR018C/POM34] | 1.71 ± 0.037 | 2.17 ± 0.04 | 2.34 ± 0.048 | 2.19 ± 0.026 |
| QQAQSFVGKKNTIGSVH [SSN3] | 3.14 ± 0.1 | 3.12 ± 0.12 | 3.1 ± 0.081 | 2.98 ± 0.097 |
| QQEAKYRNNEPAGFTHK [YDL088C/ASM4] | 2.88 ± 0.052 | 2.98 ± 0.046 | 2.6 ± 0.059 | 2.83 ± 0.045 |
| QQENSKSGKRKPNIILD [RPC31] | 2.83 ± 0.099 | 2.83 ± 0.086 | 2.64 ± 0.089 | 2.79 ± 0.076 |
| QQFNLHEILSEPAIEEE [MED1] | 2.94 ± 0.15 | 3.1 ± 0.12 | 2.98 ± 0.17 | 3.26 ± 0.13 |
| QQGQNMSEQQWREQLRN [ROX3] | 2.55 ± 0.071 | 2.48 ± 0.055 | 2.42 ± 0.086 | 2.23 ± 0.032 |
| QQLDSFNQFVDYTLQDI [RPB2] | 2.48 ± 0.094 | 2.64 ± 0.1 | 2.75 ± 0.052 | 2.43 ± 0.086 |
| QQLLKGLSLSFSKKLDL [DSN1] | 3.13 ± 0.076 | 3.1 ± 0.088 | 2.74 ± 0.069 | 3.16 ± 0.075 |
| QQLLPAPQLFPYGSFHQ [DSN1] | 2.72 ± 0.09 | 3.01 ± 0.1 | 2.72 ± 0.072 | 3.04 ± 0.08 |
| QQLVDSEKRLDHFIHLR [SNF12] | 2.3 ± 0.12 | 2.75 ± 0.07 | 2.56 ± 0.078 | 2.68 ± 0.076 |
| QQPNPLHGLTPTAKDVE [GAL11] | 3.17 ± 0.053 | 2.98 ± 0.041 | 3.15 ± 0.06 | 3.07 ± 0.033 |
